Measurements as given in the supplement of paper PMC12667976.

B1: library; numbered along this chain (parent)
chain: MATDAALRRLLRLHRTEIAVAVDSAFPLLHALADHDVVPEDKFQETLHLKEKEGCPQAFHALLSWLLTQDSTAILDFWRVLFKDYNLERYGRLQPILDSFPKDVDLSQPRKGRKPPAVPKALVPPPRLPTKRKASEEARAAAPAALTPRGTASPGSQLKAKPPKKPESSAEQQRLPLGNGIQTMSASVQRAVAMSSGDVPGARGAVEGILIQQVFESGGSKKCIQVGGEFYTPSKFEDSGSGKNKARSSSGPKPLVRAKGAQGAAPGGGEARLGQQGSVPAPLALPSDPQLHQKNEDECAVCRDGGELICCDGCPRAFHLACLSPPLREIPSGTWRCSSCLQATVQEVQPRAEEPRPQEPPVETPLPPGLRSAGEEVRGPPGEPLAGMDTTLVYKHLPAPPSAAPLPGLDSSALHPLLCVGPEGQQNLAPGARCGVCGDGTDVLRCTHCAAAFHWRCHFPAGTSRPGTGLRCRSCSGDVTPAPVEGVLAPSPARLAPGPAKDDTASHEPALHRDDLESLLSEHTFDGILQWAIQSMARPAAPFPS

Variants of: B1
Assay: AIRE transcriptional activation functional score (insulin promoter-GFP; nonsense median 0, synonymous median 1) (normalised score); higher = higher AIRE activity (more reporter activation)
Conditions: with insulin promoter-GFP reporter in HEK293
Procedure: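 Deep mutational scan of full-length human AIRE (codon-optimized cDNA, DT-POPCode NNN libraries over three regions) integrated at a Bxb1 landing pad in HEK293 cells carrying an insulin core promoter-GFP reporter at a Flp-In site. Cells were sorted for the top 10% GFP about 14 days after transfection. Variant frequency log-ratios (select vs non-select, TileSeq) were rescaled so that the nonsense median is 0 and the synonymous median is 1, then averaged over biological replicates.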

AIRE transcriptional activation functional score, by site and new letter:
T183: K 0.924; N 1.18; I 0.211; C 1.48; E 0.451; Y -0.205; W 0.659; Q 0.469; G 0.735; H 0.652; A 0.69; P 0.392; L 0.699; F 0.248; V 0.738; M 0.663; S 0.952; R 0.948; D 0.425
Q182: T 1.69; S 1.05; I -0.398; K 1.73; N 1.54; V -0.0151; R 1.3; M 0.383; W 0.0615; C 1.4; Y 0.181; H 1.91; G 0.423; P 0.264; L 0.0585; E 1.46; D 0.345; F -0.279; A 1.52
M184: G 1.01; S 0.488; Q 0.653; D -0.962; A 0.129; V 0.51; I 0.983; P 0.519; Y 0.481; T 0.688; W 0.275; F 0.676; L 0.411; R 0.932; E -0.977; N 0.0346
G178: V 1.28; M 1.65; L 1.58; W 0.64; F 1.08; A 0.405; N 0.294; Q 0.33; C 1.22; E 0.493; T 1.11; P 0.532; D 0.549; K 0.788; Y 1.89; R 1.49; S 1.26; I 1.74
S185: M -0.432; I 0.353; G 0.881; A 0.878; R 0.854; H -0.313; D 0.436; P 0.302; L -0.0826; F 0.468; V 0.26
